Patent US20100104509A1 (Bristol-Myers Squibb, published 2010)

Tests used:
[1] = biological target: T1, human CD19 expressed on the cell surface (human, UniProt P15391 20-556); assay: Raji direct binding FACS, Geo Mean; unit from the concentration axis
T1 construct: CHO cells were transfected with the full-length cDNA encoding the transmembrane form of CD19; Raji, Daudi and ARH-77 cells carry endogenous CD19; also called CD19 on Raji B tumor cells; CD19 on Daudi B tumor cells
T1 sequence: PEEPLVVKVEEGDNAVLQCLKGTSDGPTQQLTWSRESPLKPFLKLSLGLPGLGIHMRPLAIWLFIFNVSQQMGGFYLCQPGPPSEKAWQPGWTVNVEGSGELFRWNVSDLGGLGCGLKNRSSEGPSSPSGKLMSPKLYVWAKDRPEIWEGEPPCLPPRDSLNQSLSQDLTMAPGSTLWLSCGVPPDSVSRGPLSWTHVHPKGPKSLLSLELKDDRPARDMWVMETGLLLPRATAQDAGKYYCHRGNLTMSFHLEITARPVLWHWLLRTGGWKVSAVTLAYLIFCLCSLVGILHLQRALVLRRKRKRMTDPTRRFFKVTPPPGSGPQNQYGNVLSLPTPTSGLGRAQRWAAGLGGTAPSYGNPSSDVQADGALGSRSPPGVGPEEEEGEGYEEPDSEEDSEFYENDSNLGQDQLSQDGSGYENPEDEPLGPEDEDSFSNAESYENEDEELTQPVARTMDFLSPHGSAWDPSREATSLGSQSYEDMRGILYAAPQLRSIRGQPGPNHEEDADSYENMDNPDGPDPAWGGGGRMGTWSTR
Procedure: (§1) Binding of the CD19 HuMAbs by flow cytometry to the B cell tumor lines Raji and Daudi, or to a CHO-CD19 transfected cell line was assessed. CHO cells were transfected with an expression plasmid containing the full length cDNA encoding the transmembrane form of CD19. […] A known murine anti-CD19 antibody was used as a positive control. The cells were washed and detected by either a phycoerythrin-labeled anti-human or anti-mouse secondary antibody and analyzed by flow cytometry. The results for binding to the CHO-CD19 cell line, Daudi B cell line, Raji B cell line and an expanded binding set against the Raji B cell line are shown in FIGS. 25A, 25B, 25C and 25D, respectively. […] All results are shown as measured by the geometric mean fluorescent intensity (GMFI) of staining.

[2] = biological target: T1, human CD19 expressed on the cell surface; assay: FACS competition on Raji cells: unlabeled antibody titrated against biotinylated 21D4a at 0.3 ug/mL, Geo Mean (PE); unit from the concentration axis
[3] = biological target: T1, human CD19 expressed on the cell surface; assay: FACS competition on Raji cells: unlabeled antibody titrated against biotinylated 21D4 at 0.3 ug/mL, Geo Mean (PE); unit from the concentration axis
[4] = biological target: T1, human CD19 expressed on the cell surface; assay: Scatchard analysis; 125I-labelled antibody on Raji cells, 4 °C
Procedure: Raji cells were obtained from ATCC (Accession #CCL-86) and grown in RPMI containing 10% fetal bovine serum (FBS). The cells were washed twice with RPMI containing 10% FBS at 4° C. and the cells were adjusted to 4×10⁷ cells/ml in RPMI media containing 10% fetal bovine serum (binding buffer containing 24 mM Tris pH 7.2, 137 mM NaCl, 2.7 mN KCl, 2 mM glucose, 1 mM CaCl₂, 1 mM MgCl₂, 0.1% BSA). Millipore plates (MAFB NOB) were coated with 1% nonfat dry milk in water and stored a 4° C. overnight. The plates were washed with binding buffer and 25 μl of unlabeled antibody (1000-fold excess) in binding buffer was added to control wells in a Millipore 96 well glass fiber filter plate (non-specific binding NSB). Twenty-five microliters of buffer alone was added to the maximum binding control well (total binding). […] The plates were incubated for 2 hours at 200 RPM on a shaker at 4° C. At the completion of the incubation the Millipore plates were washed three times with 0.2 ml of cold wash buffer (24 mM Tris pH 7.2, 500 mM NaCl, 2.7 mN KCl, 2 mM glucose, 1 mM CaCl₂, 1 mM MgCl₂, 0.1% BSA). The filters were removed and counted in a gamma counter. Evaluation of equilibrium binding was performed using single site binding parameters with the Prism software (San Diego, Calif.).

[5] = biological target: T1, human CD19 expressed on the cell surface; assay: Flow cytometry on CHO cells transfected with human CD19, GMFI
Procedure: as §1

B1: human monoclonal antibody 3C10 (antibody, V domains shown)
VH: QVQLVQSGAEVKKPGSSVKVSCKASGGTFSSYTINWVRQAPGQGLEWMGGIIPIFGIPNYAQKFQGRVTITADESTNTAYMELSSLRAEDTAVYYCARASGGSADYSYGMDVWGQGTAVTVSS
VL: DIQMTQSPSSLSASVGDRVTITCRASQGISSWLAWYQQKPEKAPKSLIYAASSLQSGVPSRFSGSGSGTDFTLTISSLQPEDFATYYCQQYKRYPYTFGQGTKLEIK
EC50 [1]: 0.24 µg/mL | EC50 [2]: 0.686 nM | EC50 [3]: 0.628 nM

B2: human monoclonal antibody 47G4 (antibody, V domains shown)
VH: QVQLVQSGAEVKKPGSSVKVSCKDSGGTFSSYAISWVRQAPGQGLEWMGGIIPIFGTTNYAQQFQGRVTITADESTSTAYMELSSLRSEDTAVYYCAREAVAADWLDPWGQGTLVTVSS
VL: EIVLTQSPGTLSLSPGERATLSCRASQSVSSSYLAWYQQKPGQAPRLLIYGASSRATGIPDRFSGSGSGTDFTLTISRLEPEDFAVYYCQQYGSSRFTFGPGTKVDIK
notes: Human kappa antibody; It was 125I-labelled in the Scatchard assay; also called HuMAb 47G4; CD19 HuMAb 47G4
Kd [4]: ~12 nM

B3: 5G7-N19K (antibody, V domains shown)
VH: EVQLVQSGAEVKKPGESLKISCKGSGYSFTSYWIGWVRQMPGKGLEWMGIIYPGDSDTRYSPSFQGQVTISADKSINTAYLQWSSLKASDTAMYYCARGVSMIWGVIMDVWGQGTTVTVSS
VL: AIQLTQSPSSLSASVGDRVTITCRASQGISSALAWYQQKPGKAPKLLIYDASSLESGVPSRFSGSGSGTDFTLTISSLQPEDFATYYCQQFNSYPWTFGQGTKVEIK
notes: also called 5G7 with N-I-S changed to K-I-S
EC50 [1]: 0.224 µg/mL | EC50 [2]: 2.38 nM | EC50 [3]: 2.1 nM

B4: human monoclonal antibody 13F1 (antibody, V domains shown)
VH: EVQLVQSGAEVKKPGESLQISCKGSGYTFTNYWIAWVRQMPGKGLEWMGIIYPGDSDTRYSPSFQGQVTISADKSISTAYLQWSGLKASDTAMYYCARQGYSSGWRSYYGMGVWGQGTTVTVSS
VL: AIQLTQSPSSLSASVGDRVTITCRASQGISSALAWYQQKPGKAPKLLIYDASSLESGVPSRFSGSGSGTDFTLTISSLQPEDFATYYCQQFNSYPHTFGQGTKLEIK
EC50 [1]: 0.266 µg/mL | EC50 [2]: 1.97 nM | EC50 [3]: 1.99 nM

B5: human monoclonal antibody 21D4 (antibody, V domains shown)
VH: EVQLVQSGAEVKKPGESLKISCKGSGYSFSSSWIGWVRQMPGKGLEWMGIIYPDDSDTRYSPSFQGQVTISADKSIRTAYLQWSSLKASDTAMYYCARHVTMIWGVIIDFWGQGTLVTVSS
VL: AIQLTQSPSSLSASVGDRVTITCRASQGISSALAWYQQKPGKAPKLLIYDASSLESGVPSRFSGSGSGTDFTLTISSLQPEDFATYYCQQFNSYPYTFGQGTKLEIK
notes: Fully human antibody from a KM mouse hybridoma, kappa light chain; also called HuMAb 21D4; parental anti-CD19 antibody 21D4
EC50 [1]: 0.141 µg/mL | Kd [4]: ~2.14 nM | EC50 [2]: 0.832 nM | EC50 [3]: 0.655 nM | EC50 (read off the curve) [5]: ~0.1 µg/mL

B6: human monoclonal antibody 5G7 (antibody, V domains shown)
VH: EVQLVQSGAEVKKPGESLNISCKGSGYSFTSYWIGWVRQMPGKGLEWMGIIYPGDSDTRYSPSFQGQVTISADKSINTAYLQWSSLKASDTAMYYCARGVSMIWGVIMDVWGQGTTVTVSS
VL: AIQLTQSPSSLSASVGDRVTITCRASQGISSALAWYQQKPGKAPKLLIYDASSLESGVPSRFSGSGSGTDFTLTISSLQPEDFATYYCQQFNSYPWTFGQGTKVEIK
modifications: N-linked carbohydrate in the variable (Fab) region at the N-I-S motif starting at position 19
EC50 [1]: 0.188 µg/mL | EC50 [2]: 2.85 nM | EC50 [3]: 2.45 nM

B7: 5G7-N19Q (antibody, V domains shown)
VH: EVQLVQSGAEVKKPGESLQISCKGSGYSFTSYWIGWVRQMPGKGLEWMGIIYPGDSDTRYSPSFQGQVTISADKSINTAYLQWSSLKASDTAMYYCARGVSMIWGVIMDVWGQGTTVTVSS
VL: AIQLTQSPSSLSASVGDRVTITCRASQGISSALAWYQQKPGKAPKLLIYDASSLESGVPSRFSGSGSGTDFTLTISSLQPEDFATYYCQQFNSYPWTFGQGTKVEIK
notes: Glycosylation-site variant of 5G7; also called 5G7 with N-I-S changed to Q-I-S
EC50 [1]: 0.217 µg/mL | EC50 [2]: 2.63 nM | EC50 [3]: 2.16 nM

B8: human monoclonal antibody 21D4a (antibody, V domains shown)
VH: EVQLVQSGAEVKKPGESLKISCKGSGYSFSSSWIGWVRQMPGKGLEWMGIIYPDDSDTRYSPSFQGQVTISADKSIRTAYLQWSSLKASDTAMYYCARHVTMIWGVIIDFWGQGTLVTVSS
VL: AIQLTQSPSSLSASVGDRVTITCRASQGISSALAWYQQKPGKAPKLLIYDASSLESGVPSRFSGSGSGTDFTLTISSLQPEDFATYYCQQFNSYPFTFGPGTKVDIK
notes: Same heavy chain as 21D4, paired with the second light chain made by the 21D4 hybridoma
EC50 [1]: 0.129 µg/mL | EC50 [2]: 0.767 nM | EC50 [3]: 0.694 nM
